Numbering of substitutions follows the chain as printed.
T1: CBD–HsCyk-4-Nt-4A (1–288), incubated with Plk1, immobilised (UniProt Q9H0H5 1-288, Ser149 to Ala | Ser157 to Ala | Ser164 to Ala | Ser170 to Ala, incubated with Plk1-T210D (1–306) and ATP; remaining phosphorylation sites not stated)
T1 construct: HsCyk-4/MgcRacGAP N terminus, residues 1–288, four serines changed to alanine; also called HsCyk-4-4A; source: E. coli BL21 (DE3) RIL, purified on chitin beads, incubated on the beads with Plk1-T210D 1–306 and ATP
T1 sequence (looked up): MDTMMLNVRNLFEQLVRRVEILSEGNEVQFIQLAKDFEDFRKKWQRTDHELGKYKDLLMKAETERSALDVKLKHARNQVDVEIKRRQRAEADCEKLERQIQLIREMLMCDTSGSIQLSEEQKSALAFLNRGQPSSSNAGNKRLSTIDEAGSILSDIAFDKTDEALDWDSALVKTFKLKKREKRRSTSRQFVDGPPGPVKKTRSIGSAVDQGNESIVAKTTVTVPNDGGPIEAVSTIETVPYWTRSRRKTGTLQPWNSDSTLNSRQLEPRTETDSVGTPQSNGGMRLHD

T2: CBD–HsCyk-4-Nt (1–288) phosphorylated by Plk1, immobilised (UniProt Q9H0H5 1-288, phosphorylated in vitro by Plk1-T210D (1–306); Ser149, Ser157, Ser164 and Ser170 named as the sites)
T2 construct: HsCyk-4/MgcRacGAP N terminus, residues 1–288; the printed UniProt entry is the human protein; also called HsCyk-4-wt (with Plk1); source: E. coli BL21 (DE3) RIL, purified on chitin beads, phosphorylated on the beads with Plk1-T210D 1–306
T2 sequence (looked up): T1 sequence (looked up) with A149S, A157S, A164S, A170S

T3: CBD–HsCyk-4-Nt-4D (1–288), incubated with Plk1, immobilised (UniProt Q9H0H5 1-288, Ser149 to Asp | Ser157 to Asp | Ser164 to Asp | Ser170 to Asp, incubated with Plk1-T210D (1–306) and ATP; remaining phosphorylation sites not stated)
T3 construct: HsCyk-4/MgcRacGAP N terminus, residues 1–288, four serines changed to aspartate; also called HsCyk-4-4D (with Plk1); source: E. coli BL21 (DE3) RIL, purified on chitin beads, incubated on the beads with Plk1-T210D 1–306 and ATP
T3 sequence (looked up): T1 sequence (looked up) with A149D, A157D, A164D, A170D

B1: Ect2-BRCT (1–421), soluble, CBD removed by TEV (domain or fragment, UniProt Q9H8V3-4 1-421, looked up)
chain: MAENSVLTSTTGRTSLADSSIFDSKVTEISKENLLIGSTSYVEEEMPQIETRVILVQEAGKQEELIKALKDIKVGFVKMESVEEFEGLDSPEFENVFVVTDFQDSVFNDLYKADCRVIGPPVVLNCSQKGEPLPFSCRPLYCTSMMNLVLCFTGFRKKEELVRLVTLVHHMGGVIRKDFNSKVTHLVANCTQGEKFRVAVSLGTPIMKPEWIYKAWERRNEQDFYAAVDDFRNEFKVPPFQDCILSFLGFSDEEKTNMEEMTEMQGGKYLPLGDERCTHLVVEENIVKDLPFEPSKKLYVVKQEWFWGSIQMDARAGETMYLYEKANTPELKKSVSMLSLNTPNSNRKRRRLKETLAQLSRETDVSPFPPRKRPSAEHSLSIGSLLDISNTPESSINYGDTPKSCTKSSKSSTPVPSKQSA
notes: Ect2 N terminus with the BRCT repeats, residues 1–421; the printed UniProt entry is the human protein; also called soluble Ect2-BRCT; source: E. coli BL21 (DE3) RIL, purified on chitin beads, eluted by TEV cleavage
B2: CBD–HsCyk-4-Nt-4D (1–288), not incubated with Plk1, immobilised (domain or fragment, UniProt Q9H0H5 1-288, looked up)
chain: T1 sequence (looked up) with A149D, A157D, A164D, A170D
notes: HsCyk-4/MgcRacGAP N terminus, residues 1–288, four serines changed to aspartate; also called HsCyk-4-4D; source: E. coli BL21 (DE3) RIL, purified on chitin beads, kept on the beads

Tests used:
Ect2 Ect2-BRCT, 1-421 [1] = target: Ect2 Ect2-BRCT, 1-421 (UniProt Q9H8V3); test: CBD bead pull-down, Coomassie; settings: reference: 4A without Plk1
Ect2 Ect2-BRCT, 1-421 [2] = target: Ect2 Ect2-BRCT, 1-421 (UniProt Q9H8V3); test: CBD bead pull-down, Coomassie or blot; settings: reference: HsCyk-4-Nt without Plk1; sites S149,S157,S164,S170
[3] = target: T1, CBD–HsCyk-4-Nt-4A (1–288), incubated …; test: pull-down; 100 nM CBD fusion on chitin beads, with or without 50 nM Plk1-T210D 1–306 and ATP (60 min, 30°C), washed; soluble partner added at equimolar amounts; 20 mM HEPES pH 7.2, 150 mM NaCl, 5 mM MgCl2, 1 mM DTT, 0.1% Triton X-100; 90 min at 4°C; Coomassie staining or Western blot; settings: both partners purified
[4] = target: T2, CBD–HsCyk-4-Nt (1–288) phosphorylated …; test: as above; settings: both partners purified
[5] = target: T3, CBD–HsCyk-4-Nt-4D (1–288), incubated …; test: as above; settings: both partners purified
[6] = target: B1; test: as above; settings: both partners purified

HsCyk-4/MgcRacGAP HsCyk-4-Nt, 1-288 (from UniProt Q9H0H5) 4A treated with Plk1 and ATP
fold change (Ect2 Ect2-BRCT, 1-421 [1]): 3.1 fold

HsCyk-4/MgcRacGAP HsCyk-4-Nt, 1-288 (from UniProt Q9H0H5) HsCyk-4-Nt treated with Plk1-T210D kinase domain and ATP
fold change (Ect2 Ect2-BRCT, 1-421 [2]): 20.2 fold

B1
fold stimulation of binding upon Plk1 phosphorylation (against the protein without Plk1) [3]: 3.1 fold
fold stimulation of binding upon Plk1 phosphorylation (against the protein without Plk1) [4]: 20.2 fold
fold stimulation of binding upon Plk1 phosphorylation (against the protein without Plk1) [5]: 1.7 fold

B2
binding result [6]: binds

— PMC2680334, “Polo-Like Kinase 1 Directs Assembly of the HsCyk-4 RhoGAP/Ect2 RhoGEF Complex to Initiate Cleavage Furrow Formation” (PLoS Biology, 2009)
